Experiment [1] deals with TNF-alpha. In words: cell-based or functional assay.
For experiment [2], the target named is TNF-alpha. In words: Biacore 3000 SPR; Fc fusion loaded into the flow cell, exposed to TNF. (In SPR one partner is held on a chip, and binding of the other changes the refractive index at the surface.)

As for D47N/G253N TNFR2-h(1)Fc (Fc fusion), in the experiment with TNF-alpha [1], the IC50 (WEHI Assay), normalized to TNFR-h(1)Fc wt (fold of wt (normalized)) amounted to 3. The KD (TNF-alpha), normalized to TNFR-h(1)Fc wt (fold of wt (normalized)) in the experiment with TNF-alpha [2] is 55.

As to T203N P205S TNFR2-h(1)Fc (Fc fusion), the IC50 (WEHI Assay), normalized to TNFR-h(1)Fc wt (fold of wt (normalized)) in the experiment with TNF-alpha [1] worked out at 0.29. Also, the KD (TNF-alpha), normalized to TNFR-h(1)Fc wt (fold of wt (normalized)) with TNF-alpha [2] came out at 0.33.

S202N G253N TNFR2-h(1)Fc (Fc fusion): in the experiment with TNF-alpha [1], the IC50 (WEHI Assay), normalized to TNFR-h(1)Fc wt (fold of wt (normalized)) worked out at 0.23. Besides, in the experiment with TNF-alpha [2], the KD (TNF-alpha), normalized to TNFR-h(1)Fc wt (fold of wt (normalized)) was 1.05.

For E155N G253N TNFR2-h(1)Fc (Fc fusion), the IC50 (WEHI Assay), normalized to TNFR-h(1)Fc wt (fold of wt (normalized)) in the experiment with TNF-alpha [1] worked out at 0.57. The KD (TNF-alpha), normalized to TNFR-h(1)Fc wt (fold of wt (normalized)) with TNF-alpha [2] came to 3.6.

Take “E155N S202N G253N TNFR2-h(1)Fc (Fc fusion)”: the IC50 (WEHI Assay), normalized to TNFR-h(1)Fc wt (fold of wt (normalized)) in the experiment with TNF-alpha [1] is 0.25. Besides, the KD (TNF-alpha), normalized to TNFR-h(1)Fc wt (fold of wt (normalized)) with TNF-alpha [2] is 1.

As for D47N/E155N TNFR2-h(1)Fc (Fc fusion), the IC50 (WEHI Assay), normalized to TNFR-h(1)Fc wt (fold of wt (normalized)) in the experiment with TNF-alpha [1] is 1.6. In addition, the KD (TNF-alpha), normalized to TNFR-h(1)Fc wt (fold of wt (normalized)) with TNF-alpha [2] was determined as 2.6.

Turning to T222N TNFR2-h(1)Fc (Fc fusion), in the experiment with TNF-alpha [1], the IC50 (WEHI Assay), normalized to TNFR-h(1)Fc wt (fold of wt (normalized)) was 0.25. In addition, the KD (TNF-alpha), normalized to TNFR-h(1)Fc wt (fold of wt (normalized)) in the experiment with TNF-alpha [2] turned out to be 0.78.

Regarding D47N S202N TNFR2-h(1)Fc (Fc fusion), the IC50 (WEHI Assay), normalized to TNFR-h(1)Fc wt (fold of wt (normalized)) with TNF-alpha [1] worked out at 1.1. The KD (TNF-alpha), normalized to TNFR-h(1)Fc wt (fold of wt (normalized)) with TNF-alpha [2] is 4.4.

Consider D47N TNFR2-h(1)Fc (Fc fusion), for which, in the experiment with TNF-alpha [1], the IC50 (WEHI Assay), normalized to TNFR-h(1)Fc wt (fold of wt (normalized)) worked out at 1.9. In the experiment with TNF-alpha [2], the KD (TNF-alpha), normalized to TNFR-h(1)Fc wt (fold of wt (normalized)) turned out to be 1.6.

(Values after patent publication US20130084291A1.)
